Test results as given in patent US20240376151A1 (FOG PHARMACEUTICALS, published 2024).
Values belong to the binder of their own block, whether it stands above or below them. Bridge positions count the residues as written; N and C are the ends.

Columns and labels:
[1] = biological target: T1, PPIA, full length (residues 1-165) (human, UniProt P62937 1-165); experiment: assay not named on the sheet; printed beside the co-crystal structure
T1 construct: also called Cyclophilin A; peptidyl-prolyl cis-trans isomerase A

[2] = biological target: T2, beta-catenin Armadillo domain, residues 134-665 (human, UniProt P35222 134-665, biotinylated through the N-terminal yBBr tag for SPR; tag cleaved off for crystallography); experiment: SPR, immobilized β-catenin, MDM2 flowed in the presence of 1 µM Helicon H330 (1.m112)
T2 construct: also called β-catenin; CTNNB1
T2 sequence: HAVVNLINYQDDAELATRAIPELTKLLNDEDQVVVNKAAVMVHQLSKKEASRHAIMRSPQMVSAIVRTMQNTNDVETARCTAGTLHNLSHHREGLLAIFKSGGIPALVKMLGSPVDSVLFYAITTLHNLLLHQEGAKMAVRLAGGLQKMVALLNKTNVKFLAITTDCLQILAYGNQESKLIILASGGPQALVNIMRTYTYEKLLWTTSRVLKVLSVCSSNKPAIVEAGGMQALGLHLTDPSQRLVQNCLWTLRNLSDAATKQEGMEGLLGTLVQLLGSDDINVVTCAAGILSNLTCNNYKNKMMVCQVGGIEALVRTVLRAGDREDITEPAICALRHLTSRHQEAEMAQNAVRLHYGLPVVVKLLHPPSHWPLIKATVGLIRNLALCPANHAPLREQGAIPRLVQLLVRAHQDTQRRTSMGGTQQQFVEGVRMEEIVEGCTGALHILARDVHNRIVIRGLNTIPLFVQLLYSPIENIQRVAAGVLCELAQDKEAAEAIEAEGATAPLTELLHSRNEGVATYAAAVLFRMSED

[3] = biological target: T2, beta-catenin Armadillo domain, residues …; experiment: SPR, immobilized β-catenin, MDM2 flowed in the presence of 1 µM Helicon H332 (1.m114)
[4] = biological target: CDK2:Cyclin E1 (CCNE1) complex (UniProt P24864 81-363); experiment: SPR, ligand CDK2 (pT160) : CCNE1
[5] = biological target: T1, PPIA, full length (residues 1-165); experiment: SPR, affinity fit
[6] = biological target: T2, beta-catenin Armadillo domain, residues …; experiment: SPR, alanine-scanning table
[7] = biological target: T3, active CDK2 (with T160 phosphorylated) (Homo sapiens (Human), UniProt P24941 1-298); experiment: SPR, ligand CDK2 (pT160), no additive
[8] = biological target: T3, active CDK2 (with T160 phosphorylated); experiment: SPR, ligand CDK2 (pT160), additive 200 nM Dinaciclib
[9] = biological target: T3, active CDK2 (with T160 phosphorylated); experiment: SPR, ligand CDK2 (pT160), additives 2 mM AMPPNP, 5mM MgCl2

T1 sequence (P62937 whole entry, the tested form may be a part): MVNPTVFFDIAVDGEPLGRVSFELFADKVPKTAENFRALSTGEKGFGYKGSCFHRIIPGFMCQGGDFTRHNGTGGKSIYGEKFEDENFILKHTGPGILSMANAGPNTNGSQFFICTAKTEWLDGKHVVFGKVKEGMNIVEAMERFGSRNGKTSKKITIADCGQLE

Binder: Ac-PECHIEAYWCI-NH2 (bridge 3-10; not fully specified (bridges); printed as Ac-PECHIEA YWCI-NH2, Cluster C54) [FP29102]
- Kd [1]: 11000 nM

B2: FP33215 (peptide)
peptide: Ac-WWVCAIAAIECSD-NH2
modifications: bridge 4-11; also: Cys staple linker not named
notes: also called truncated version of FP19711
- Kd [4]: 270 nM

Binder: Ac-PDCHIRAYVCH-NH2 (bridge 3-10; not fully specified (bridges), Cluster C54) [FP29103]
- Kd [5]: 10000 nM

Binder: Ac-DPANQDCHVAAWHCWQR-NH2 (bridge 7-14; not fully specified (bridges), Cluster C53) [FP29092]
- Kd [5]: 3000 nM

B3: FP49251 (peptide)
stapled peptide: Ac-DPATARCEWAALHCELV-NH2
modifications: bridge 7-14; not fully specified (bridges); printed as Ac-DPATARCEWAALHCELV-NH2
notes: also called H-to-A member of the alanine-scanning series of FP01567
- Kd [6]: 400 nM

B6: FP49254 (peptide)
stapled peptide: Ac-DPATHRCEAAALHCELV-NH2
modifications: bridge 7-14; not fully specified (bridges); printed as Ac-DPATHRCEAAALHCELV-NH2
notes: also called W-to-A member of the alanine-scanning series of FP01567
- Kd [6]: > 20000 nM

B8: FP49252 (peptide)
stapled peptide: Ac-DPATHACEWAALHCELV-NH2
modifications: bridge 7-14; not fully specified (bridges); printed as Ac-DPATHACEWAALHCELV-NH2
notes: also called R-to-A member of the alanine-scanning series of FP01567
- Kd [6]: 300 nM

B10: FP49253 (peptide)
stapled peptide: Ac-DPATHRCAWAALHCELV-NH2
modifications: bridge 7-14; not fully specified (bridges); printed as Ac-DPATHRCAWAALHCELV-NH2
notes: also called E-to-A member of the alanine-scanning series of FP01567
- Kd [6]: 2700 nM

Binder: Ac-DPAWWVCAIAAIECSDV-NH2 (bridge 7-14; not fully specified (bridges), Cluster C51) [FP19711]
- Kd [4]: 1700 nM
- Kd [7]: 1700 nM
- Kd [8]: 2000 nM
- Kd [9]: 900 nM

Second part, the binder after the results:

- Kd [2]: 254 nM
- Kd [3]: 1340 nM
B1: MDM2 p53-binding domain, residues 17-111, C17S (enzyme)
chain: SQIPASEQETLVRPKPLLLKLLKSVGAQKDTYTMKEVLFYLGQYIMTKRLYDEKQQHIVYCSNDLLGDLFGVPSFSVKEHRKIYTMIYRNLVVVN
notes: Form for crystallography and the FP assays

- Kd [6]: 1000 nM
B4: FP49257 (peptide)
stapled peptide: Ac-DPATHRCEWAALHCALV-NH2
modifications: bridge 7-14; not fully specified (bridges); printed as Ac-DPATHRCEWAALHCALV-NH2
notes: also called E-to-A (after the second Cys) member of the alanine-scanning series of FP01567

- Kd [6]: > 20000 nM
B5: FP49258 (peptide)
stapled peptide: Ac-DPATHRCEWAALHCEAV-NH2
modifications: bridge 7-14; not fully specified (bridges); printed as Ac-DPATHRCEWAALHCEAV-NH2
notes: also called L-to-A (penultimate residue) member of the alanine-scanning series of FP01567

- Kd [6]: > 20000 nM
B7: FP49259 (peptide)
stapled peptide: Ac-DPATHRCEWAALHCELA-NH2
modifications: bridge 7-14; not fully specified (bridges)
notes: also called V-to-A (last residue) member of the alanine-scanning series of FP01567

- Kd [6]: > 20000 nM
B9: FP49255 (peptide)
stapled peptide: Ac-DPATHRCEWAAAHCELV-NH2
modifications: bridge 7-14; not fully specified (bridges); printed as Ac-DPATHRCEWAAAHCELV-NH2
notes: also called L-to-A member of the alanine-scanning series of FP01567
